From publication PMC10998613 come the findings set out here.

Where two headings read alike, the source gives them in different places.

Assay in all cases: PIE-FCCS
Experiment [1] has as its target β2AR-AcGFP1 / β2AR-mCherry (β2-adrenergic receptor with a C-terminal fluorescent protein) (human) (UniProt P07550).
For experiment [2] the target is unchanged. The source holds these as a separate data set.
The target of experiment [3] is T1, CXCR4-AcGFP1 / CXCR4-mCherry (C-X-C motif chemokine receptor 4 with a C-terminal fluorescent protein) (human), P61073.
T1 chain: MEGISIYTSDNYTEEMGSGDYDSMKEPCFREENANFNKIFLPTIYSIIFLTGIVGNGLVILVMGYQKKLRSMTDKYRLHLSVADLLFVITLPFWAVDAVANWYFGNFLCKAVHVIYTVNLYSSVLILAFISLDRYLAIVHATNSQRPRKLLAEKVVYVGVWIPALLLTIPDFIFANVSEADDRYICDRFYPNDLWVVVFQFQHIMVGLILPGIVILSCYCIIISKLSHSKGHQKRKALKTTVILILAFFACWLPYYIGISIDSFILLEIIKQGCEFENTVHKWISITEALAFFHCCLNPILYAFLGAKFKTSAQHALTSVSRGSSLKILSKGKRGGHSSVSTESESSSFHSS
The settings on record: remark: other sources report otherwise.

Experiment [4] addresses T1, CXCR4-AcGFP1 / CXCR4-mCherry (C-X-C …). As to conditions: remark: other sources report otherwise.

On to “β2AR-AcGFP1 / β2AR-mCherry (β2-adrenergic receptor with a C-terminal fluorescent protein) (from UniProt P07550 1-413)”, for which the fc in experiment [1] worked out at 0.13; in experiment [2], 0.11.

B1: CXCR4-AcGFP1 / CXCR4-mCherry (C-X-C motif chemokine receptor 4 with a C-terminal fluorescent protein), P61073 1-352 (receptor)
chain: T1 chain
Take B1: the median fc in experiment [3] was 0.18. In experiment [4], the mean fc came out at 0.39 and the median fc stood at 0.31.
